# T1: ParB (Spo0J) (Bacillus subtilis 168, UniProt P26497 1-282)
# T1 sequence: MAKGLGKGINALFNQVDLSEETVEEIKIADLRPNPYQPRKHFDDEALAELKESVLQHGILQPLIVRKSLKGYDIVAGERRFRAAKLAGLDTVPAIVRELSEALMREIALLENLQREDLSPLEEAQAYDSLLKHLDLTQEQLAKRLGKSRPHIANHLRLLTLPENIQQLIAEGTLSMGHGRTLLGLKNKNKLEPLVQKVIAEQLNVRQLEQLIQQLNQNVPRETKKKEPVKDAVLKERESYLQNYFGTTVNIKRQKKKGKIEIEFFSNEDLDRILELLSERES
# What was measured:
# [1] = molecular target: T1, ParB (Spo0J); assay: SEC-MALS; 9 uM ParB2, 10 uM DNA; 81.6 ± 1.9 kDa, one dimer per DNA; 50 mM Hepes-KOH pH 7.5, 100 mM KCl, 2.5 mM MgCl2, 0.1 mg/ml BSA, 1 mM DTT, 20 nM DNA; EMSA also 2.5% Ficoll, room temperature 30 min then ice 5 min, gel at 4 C; conditions: protein: recombinant; tags: untagged; chain copies: 2; label: 5'-Hex on forward strand; blunt
# [2] = molecular target: T1, ParB (Spo0J); assay: SEC-MALS; 80 uM ParB2; 50 mM Hepes-KOH pH 7.5, 100 mM KCl, 2.5 mM MgCl2, 0.1 mg/ml BSA, 1 mM DTT, 20 nM DNA; EMSA also 2.5% Ficoll, room temperature 30 min then ice 5 min, gel at 4 C; conditions: protein: recombinant; tags: untagged; chain copies: 2; label: 5'-Hex on forward strand; blunt
# [3] = molecular target: T1, ParB (Spo0J); assay: SEC-MALS; 50 mM Hepes-KOH pH 7.5, 100 mM KCl, 2.5 mM MgCl2, 0.1 mg/ml BSA, 1 mM DTT, 20 nM DNA; EMSA also 2.5% Ficoll, room temperature 30 min then ice 5 min, gel at 4 C; conditions: protein: recombinant, tags: untagged, chain copies: 2, blunt
# [4] = label: 5'-Hex on forward strand
binder,measurement,setting,value
24-bp parS (dsDNA) DNA 1: AGAATGTTCCACGTGAAACAAAGA DNA 2: TCTTTGTTTCACGTGGAACATTCT,binding result,[1],binds
24-bp non-specific (dsDNA) DNA 1: AGAACGTGCCCAGGGAGACAAAGA DNA 2: TCTTTGTCTCCCTGGGCACGTTCT,binding result,[2],binds
100-bp parS (dsDNA) DNA 1: TGTTCGCCAACTTGAGCAGCTGATTCAGCAGTTGAATCAGAATGTTCCACGTGAAACAAAGAAAAAAGAACCTGTGAAAGATGCGGTTCTAAAAGAACGG DNA 2: CCGTTCTTTTAGAACCGCATCTTTCACAGGTTCTTTTTTCTTTGTTTCACGTGGAACATTCTGATTCAACTGCTGAATCAGCTGCTCAAGTTGGCGAACA,binding result,[3]; [4],binds
100-bp non-specific (dsDNA) DNA 1: TGTTCGCCAACTTGAGCAGCTGATTCAGCAGTTGAATCAGAACGTGCCCAGGGAGACAAAGAAAAAAGAACCTGTGAAAGATGCGGTTCTAAAAGAACGG DNA 2: CCGTTCTTTTAGAACCGCATCTTTCACAGGTTCTTTTTTCTTTGTCTCCCTGGGCACGTTCTGATTCAACTGCTGAATCAGCTGCTCAAGTTGGCGAACA,binding result,[3]; [4],binds
50-bp parS (dsDNA) DNA 1: CAGCAGTTGAATCAGAATGTTCCACGTGAAACAAAGAAAAAAGAACCTGT DNA 2: ACAGGTTCTTTTTTCTTTGTTTCACGTGGAACATTCTGATTCAACTGCTG,binding result,[3]; label: 5'-Hex on forward strand (SEC-MALS),binds

# Source: publication PMC4333373, “Specific and non-specific interactions of ParB with DNA: implications for chromosome segregation”
